# B1: prey clone No. 3-309: C-terminal 91 amino acids of the human c-Met β chain fused to GAL4-AD (other, not shown: large carriers)
# chain: RRLLQPEYCPDPLYEVMLKCWHPKAEMRPSFSELVSRISAIFSTFIGEHYVHVNATYVNVKCVAPYPSLLSSEDNADDEVDTRPASFWETS
# notes: also called human HGF receptor c-Met prey vector
# B2: c-Met prey protein B (amino acids 1013-1083 of SEQ ID NO: 4) fused to GAL4-AD (other, not shown: large carriers)
# chain: WHPKAEMRPSFSELVSRISAIFSTFIGEHYVHVNATYVNVKCVAPYPSLLSSEDNADDEVDTRPASFWETS
# notes: also called prey DNA B
# B3: prey clone No. 3-312: C-terminal 89 amino acids of the human c-Met β chain fused to GAL4-AD (other, not shown: large carriers)
# chain: LLQPEYCPDPLYEVMLKCWHPKAEMRPSFSELVSRISAIFSTFIGEHYVHVNATYVNVKCVAPYPSLLSSEDNADDEVDTRPASFWETS
# B4: prey clone No. 2-22: C-terminal 93 amino acids of human MERMUC fused to GAL4-AD (other, not shown: large carriers)
# chain: SSRGTNSTLAKITTSAKTTMKPPTATPTTARTRPTTDVSAGENGGFLLLRLSVASPEDLTDPRVAERLMQQLHRELHAHAPHFQVSLLRVRRG
# B5: prey clone No. 2-211: C-terminal 56 amino acids of human MERMUC fused to GAL4-AD (other, not shown: large carriers)
# chain: VSAGENGGFLLLRLSVASPEDLTDPRVAERLMQQLHRELHAHAPHFQVSLLRVRRG
# B6: c-Met prey protein A (amino acids 1003-1083 of SEQ ID NO: 4) fused to GAL4-AD (other, not shown: large carriers)
# chain: DPLYEVMLKCWHPKAEMRPSFSELVSRISAIFSTFIGEHYVHVNATYVNVKCVAPYPSLLSSEDNADDEVDTRPASFWETS
# notes: also called prey DNA A
# B7: c-Met prey protein C (amino acids 1023-1083 of SEQ ID NO: 4) fused to GAL4-AD (other, not shown: large carriers)
# chain: FSELVSRISAIFSTFIGEHYVHVNATYVNVKCVAPYPSLLSSEDNADDEVDTRPASFWETS
# notes: also called prey DNA C
# B8: c-Met prey protein G (amino acids 993-1043 of SEQ ID NO: 4) fused to GAL4-AD (other, not shown: large carriers)
# chain: RRLLQPEYCPDPLYEVMLKCWHPKAEMRPSFSELVSRISAIFSTFIGEHYV
# notes: also called prey DNA G
# B9: MERMUC bait protein C260ΔC53 (amino acids 244-450 of SEQ ID NO: 10) fused to GAL4-DB (other, not shown: small tags and cut ends)
# chain: VKASSTSDPPALPDSTEAKPHITEVTASAETLSTAGTTESAAPHATVGTPLPTNSATEREVTAPGATTLSGALVTVSRNPLEETSALSVETPSYVKVSGAAPVSIEAGSAVGKTTSFAGSSASSYSPSEAALKNFTPSETPTMDIATKGPFPTSRDPLPSVPPTTTNSSRGTNSTLAKITTSAKTTMKPPTATPTTARTRPTTDVSA
# notes: also called C260A53; C260AC53
# Tests used:
# [1] = biological target: MERMUC bait protein C260 (amino acids 244-503 of SEQ ID NO: 10) fused to GAL4-DB (yeast; human, UniProt P04386 1-147); test: yeast two-hybrid
# Method: (§1) Yeast AH109 strain was cotransfected with each of the bait vectors and the prey vector carrying human HGF receptor c-Met (DNA corresponding to the C-terminal 91 amino acids of the human c-Met; clone No. 3-309) identified in Example 1.
# (§2) The binding ability of MERMUC bait protein derived from each of the bait vectors to the HGF receptor c-Met β chain was analyzed by the yeast two-hybrid system described above.
# [2] = biological target: MERMUC bait protein C53 (amino acids 451-503 of SEQ ID NO: 10) fused to GAL4-DB (yeast; human, UniProt P04386 1-147); test: yeast two-hybrid
# Method: as §1, §2
# [3] = biological target: T1, human MERMUC bait-2 protein (C-terminal 123 amino acids of human MERMUC fused to GAL4-DB) (yeast; human); test: yeast two-hybrid screen of a human kidney cDNA library
# T1 construct: also called MERMUC bait protein; fusion protein A
# Method: Specifically, yeast two hybrid system (Proc. Natl. Acad. Sci. USA., 1991, Vol.88, p.9578-9582) was performed to screen a human kidney cDNA library using cDNA corresponding to the C-terminal region of the human MERMUC as the bait (that is, fishing bait).
# On the other hand, each cDNA of the human kidney derived cDNA library (CLONTECH) that is used for the screening with the bait vector is inserted in pADK vector (tryptophan biosynthesis gene as a marker). Therefore, proteins produced through the expression of each of these cDNAs in yeast are produced as a fusion protein ([fusion protein B]) with the GAL4 transcriptional activation region (GAL4-AD).
# [4] = biological target: T1, human MERMUC bait-2 protein (C-terminal …); test: yeast two-hybrid (growth on SD/-Leu,-Trp,-His and SD/-Leu,-Trp,-Ade)
# Method: The binding activity between the c-Met prey proteins derived from the 7 DNA fragments and the MERMUC bait protein was analyzed by the yeast two-hybrid system described in Example 1. Specifically, the binding activity was evaluated based on the growth of yeast transformed with the vector on 2 kinds of yeast minimum media, i.e., (1) SD/-Leu, -Trp, -His media and (2) SD/-Leu, -Trp, -Ade media.
# [5] = biological target: B1; test: yeast two-hybrid
# Method: as §1, §2
Binder,binding result [3],binding result [4],further results
B1,binds,,binding result [1]: binds; binding result [2]: binds
B2,,binds,
B3,binds,,
B4,binds,,
B5,binds,,
B6,,binds,
B7,,no binding,
B8,,no binding,
B9,,,binding result [5]: no binding

# — patent publication US20050113284A1 (published 2005)
